Experimental data taken from patent US12679878B2, “CRF2 receptor agonists and their use in therapy” (SANOFI, priority 2020, dated 2026).
Starred links: 1 amine or outer side, 2 acyl side, 3 side chain; linkers in the order of their positions; H or OH if unused. Non-standard residues stand in square brackets, D forms with d. Groups on a side chain read outwards from the residue. No end group written: not given here. *: point of attachment. C18 diacid = O=C(O)CCCCCCCCCCCCCCCCC(=O)*; γGlu = O=C(O)[C@H](CCC(=O)[*:2])N[*:1]; Palmitoyl = CCCCCCCCCCCCCCCC(=O)*; AEEA = NCCOCCOCC(=O)O; Aib = CC(C)(N)C(=O)O

Tests used:
rat CRF2R α receptor = rat CRF2R α receptor (rat, UniProt P47866 20-411); assay: cell-based or functional assay
Sequence of rat CRF2R α receptor (P47866 20-411): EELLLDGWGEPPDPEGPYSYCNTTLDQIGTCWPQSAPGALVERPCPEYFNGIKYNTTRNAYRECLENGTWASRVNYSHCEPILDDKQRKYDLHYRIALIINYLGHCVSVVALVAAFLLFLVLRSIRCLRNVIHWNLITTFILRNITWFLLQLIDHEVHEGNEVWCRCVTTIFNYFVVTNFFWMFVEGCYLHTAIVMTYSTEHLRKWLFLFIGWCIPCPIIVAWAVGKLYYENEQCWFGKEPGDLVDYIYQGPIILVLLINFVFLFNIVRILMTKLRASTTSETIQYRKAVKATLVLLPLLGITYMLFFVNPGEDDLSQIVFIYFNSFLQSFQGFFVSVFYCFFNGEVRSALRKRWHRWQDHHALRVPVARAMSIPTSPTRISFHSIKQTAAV

[1] = biological target: T1, anti-target CRF1R receptor (UniProt P34998 24-415, limits assumed); assay: cell-based or functional assay
T1 sequence (looked up): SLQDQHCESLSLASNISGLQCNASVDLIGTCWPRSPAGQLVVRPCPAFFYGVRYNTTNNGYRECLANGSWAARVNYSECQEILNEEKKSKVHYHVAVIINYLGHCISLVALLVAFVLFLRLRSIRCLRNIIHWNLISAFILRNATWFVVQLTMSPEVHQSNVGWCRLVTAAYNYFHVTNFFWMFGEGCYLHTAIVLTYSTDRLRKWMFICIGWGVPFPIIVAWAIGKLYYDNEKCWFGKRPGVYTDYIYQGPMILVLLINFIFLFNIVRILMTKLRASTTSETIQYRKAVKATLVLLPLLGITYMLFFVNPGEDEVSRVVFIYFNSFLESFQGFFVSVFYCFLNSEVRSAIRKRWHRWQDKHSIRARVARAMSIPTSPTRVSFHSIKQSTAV

B1: peptide of SEQ ID NO: 13 (peptide)
peptide: FTLSLDVPTKIK([AEEA-AEEA-γGlu-C18 diacid])QILFKQQKQKKERQQAEKNKQLLEQI-NH2
modifications: N-terminus assumed
SMILES: CC[C@H](C)[C@H](NC(=O)[C@H](CCC(N)=O)NC(=O)[C@H](CCC(=O)O)NC(=O)[C@H](CC(C)C)NC(=O)[C@H](CC(C)C)NC(=O)[C@H](CCC(N)=O)NC(=O)[C@H](CCCCN)NC(=O)[C@H](CC(N)=O)NC(=O)[C@H](CCCCN)NC(=O)[C@H](CCC(=O)O)NC(=O)[C@H](C)NC(=O)[C@H](CCC(N)=O)NC(=O)[C@H](CCC(N)=O)NC(=O)[C@H](CCCNC(=N)N)NC(=O)[C@H](CCC(=O)O)NC(=O)[C@H](CCCCN)NC(=O)[C@H](CCCCN)NC(=O)[C@H](CCC(N)=O)NC(=O)[C@H](CCCCN)NC(=O)[C@H](CCC(N)=O)NC(=O)[C@H](CCC(N)=O)NC(=O)[C@H](CCCCN)NC(=O)[C@H](Cc1ccccc1)NC(=O)[C@H](CC(C)C)NC(=O)[C@@H](NC(=O)[C@H](CCC(N)=O)NC(=O)[C@H](CCCCNC(=O)COCCOCCNC(=O)COCCOCCNC(=O)CC[C@H](NC(=O)CCCCCCCCCCCCCCCCC(=O)O)C(=O)O)NC(=O)[C@@H](NC(=O)[C@H](CCCCN)NC(=O)[C@@H](NC(=O)[C@@H]1CCCN1C(=O)[C@@H](NC(=O)[C@H](CC(=O)O)NC(=O)[C@H](CC(C)C)NC(=O)[C@H](CO)NC(=O)[C@H](CC(C)C)NC(=O)[C@@H](NC(=O)[C@@H](N)Cc1ccccc1)[C@@H](C)O)C(C)C)[C@@H](C)O)[C@@H](C)CC)[C@@H](C)CC)C(N)=O
EC50 [nM], 0% HSA (cAMP, A7R5 cells) (rat CRF2R α receptor): 2.5 nM | EC50[nM] 0% HSA (cAMP, CRF1R-overexpression CHO cells) [1]: > 1000 nM | Emax (%) (cAMP, CRF1R-overexpression CHO cells) [1]: 4.3%

B2: peptide of SEQ ID NO: 15 (peptide)
peptide: FTLSLDVPTKIK([γGlu-Palmitoyl])QKLFKQAKQKKQRQKAKTNAQILARV-NH2
modifications: N-terminus assumed
SMILES: CCCCCCCCCCCCCCCC(=O)N[C@@H](CCC(=O)NCCCC[C@H](NC(=O)[C@@H](NC(=O)[C@H](CCCCN)NC(=O)[C@@H](NC(=O)[C@@H]1CCCN1C(=O)[C@@H](NC(=O)[C@H](CC(=O)O)NC(=O)[C@H](CC(C)C)NC(=O)[C@H](CO)NC(=O)[C@H](CC(C)C)NC(=O)[C@@H](NC(=O)[C@@H](N)Cc1ccccc1)[C@@H](C)O)C(C)C)[C@@H](C)O)[C@@H](C)CC)C(=O)N[C@@H](CCC(N)=O)C(=O)N[C@@H](CCCCN)C(=O)N[C@@H](CC(C)C)C(=O)N[C@@H](Cc1ccccc1)C(=O)N[C@@H](CCCCN)C(=O)N[C@@H](CCC(N)=O)C(=O)N[C@@H](C)C(=O)N[C@@H](CCCCN)C(=O)N[C@@H](CCC(N)=O)C(=O)N[C@@H](CCCCN)C(=O)N[C@@H](CCCCN)C(=O)N[C@@H](CCC(N)=O)C(=O)N[C@@H](CCCNC(=N)N)C(=O)N[C@@H](CCC(N)=O)C(=O)N[C@@H](CCCCN)C(=O)N[C@@H](C)C(=O)N[C@@H](CCCCN)C(=O)N[C@H](C(=O)N[C@@H](CC(N)=O)C(=O)N[C@@H](C)C(=O)N[C@@H](CCC(N)=O)C(=O)N[C@H](C(=O)N[C@@H](CC(C)C)C(=O)N[C@@H](C)C(=O)N[C@@H](CCCNC(=N)N)C(=O)N[C@H](C(N)=O)C(C)C)[C@@H](C)CC)[C@@H](C)O)C(=O)O
EC50 [nM], 0% HSA (cAMP, A7R5 cells) (rat CRF2R α receptor): 1.38 nM | EC50[nM] 0% HSA (cAMP, CRF1R-overexpression CHO cells) [1]: > 1000 nM | Emax (%) (cAMP, CRF1R-overexpression CHO cells) [1]: 7.75%

B3: peptide of SEQ ID NO: 24 (peptide)
peptide: IVLSLD[dV]PTKLK([AEEA-AEEA-γGlu-C18 diacid])QKLLKQERQRKEREQAEKNKRILERV-NH2
modifications: N-terminus assumed
SMILES: CC[C@H](C)[C@H](N)C(=O)N[C@H](C(=O)N[C@@H](CC(C)C)C(=O)N[C@@H](CO)C(=O)N[C@@H](CC(C)C)C(=O)N[C@@H](CC(=O)O)C(=O)N[C@@H](C(=O)N1CCC[C@H]1C(=O)N[C@H](C(=O)N[C@@H](CCCCN)C(=O)N[C@@H](CC(C)C)C(=O)N[C@@H](CCCCNC(=O)COCCOCCNC(=O)COCCOCCNC(=O)CC[C@H](NC(=O)CCCCCCCCCCCCCCCCC(=O)O)C(=O)O)C(=O)N[C@@H](CCC(N)=O)C(=O)N[C@@H](CCCCN)C(=O)N[C@@H](CC(C)C)C(=O)N[C@@H](CC(C)C)C(=O)N[C@@H](CCCCN)C(=O)N[C@@H](CCC(N)=O)C(=O)N[C@@H](CCC(=O)O)C(=O)N[C@@H](CCCNC(=N)N)C(=O)N[C@@H](CCC(N)=O)C(=O)N[C@@H](CCCNC(=N)N)C(=O)N[C@@H](CCCCN)C(=O)N[C@@H](CCC(=O)O)C(=O)N[C@@H](CCCNC(=N)N)C(=O)N[C@@H](CCC(=O)O)C(=O)N[C@@H](CCC(N)=O)C(=O)N[C@@H](C)C(=O)N[C@@H](CCC(=O)O)C(=O)N[C@@H](CCCCN)C(=O)N[C@@H](CC(N)=O)C(=O)N[C@@H](CCCCN)C(=O)N[C@@H](CCCNC(=N)N)C(=O)N[C@H](C(=O)N[C@@H](CC(C)C)C(=O)N[C@@H](CCC(=O)O)C(=O)N[C@@H](CCCNC(=N)N)C(=O)N[C@H](C(N)=O)C(C)C)[C@@H](C)CC)[C@@H](C)O)C(C)C)C(C)C
EC50 [nM], 0% HSA (cAMP, A7R5 cells) (rat CRF2R α receptor): 4.94 nM | EC50[nM] 0% HSA (cAMP, CRF1R-overexpression CHO cells) [1]: > 1000 nM | Emax (%) (cAMP, CRF1R-overexpression CHO cells) [1]: 1.48%

B4: peptide of SEQ ID NO: 39 (peptide)
peptide: IVLSLDVPIKLK([AEEA-AEEA-γGlu-C18 diacid])QILLEQERQRKERQQAETNAQILAQV-NH2
modifications: N-terminus assumed
SMILES: CC[C@H](C)[C@H](N)C(=O)N[C@H](C(=O)N[C@@H](CC(C)C)C(=O)N[C@@H](CO)C(=O)N[C@@H](CC(C)C)C(=O)N[C@@H](CC(=O)O)C(=O)N[C@H](C(=O)N1CCC[C@H]1C(=O)N[C@H](C(=O)N[C@@H](CCCCN)C(=O)N[C@@H](CC(C)C)C(=O)N[C@@H](CCCCNC(=O)COCCOCCNC(=O)COCCOCCNC(=O)CC[C@H](NC(=O)CCCCCCCCCCCCCCCCC(=O)O)C(=O)O)C(=O)N[C@@H](CCC(N)=O)C(=O)N[C@H](C(=O)N[C@@H](CC(C)C)C(=O)N[C@@H](CC(C)C)C(=O)N[C@@H](CCC(=O)O)C(=O)N[C@@H](CCC(N)=O)C(=O)N[C@@H](CCC(=O)O)C(=O)N[C@@H](CCCNC(=N)N)C(=O)N[C@@H](CCC(N)=O)C(=O)N[C@@H](CCCNC(=N)N)C(=O)N[C@@H](CCCCN)C(=O)N[C@@H](CCC(=O)O)C(=O)N[C@@H](CCCNC(=N)N)C(=O)N[C@@H](CCC(N)=O)C(=O)N[C@@H](CCC(N)=O)C(=O)N[C@@H](C)C(=O)N[C@@H](CCC(=O)O)C(=O)N[C@H](C(=O)N[C@@H](CC(N)=O)C(=O)N[C@@H](C)C(=O)N[C@@H](CCC(N)=O)C(=O)N[C@H](C(=O)N[C@@H](CC(C)C)C(=O)N[C@@H](C)C(=O)N[C@@H](CCC(N)=O)C(=O)N[C@H](C(N)=O)C(C)C)[C@@H](C)CC)[C@@H](C)O)[C@@H](C)CC)[C@@H](C)CC)C(C)C)C(C)C
EC50 [nM], 0% HSA (cAMP, A7R5 cells) (rat CRF2R α receptor): 2.04 nM | EC50[nM] 0% HSA (cAMP, CRF1R-overexpression CHO cells) [1]: > 1000 nM | Emax (%) (cAMP, CRF1R-overexpression CHO cells) [1]: 13.3%

B5: peptide of SEQ ID NO: 46 (peptide)
peptide: IVLSLDVPIKLK([AEEA-AEEA-γGlu-C18 diacid])QILLEQAKQK[Aib]LRAQAETNVRILERV-NH2
modifications: N-terminus assumed
SMILES: CC[C@H](C)[C@H](N)C(=O)N[C@H](C(=O)N[C@@H](CC(C)C)C(=O)N[C@@H](CO)C(=O)N[C@@H](CC(C)C)C(=O)N[C@@H](CC(=O)O)C(=O)N[C@H](C(=O)N1CCC[C@H]1C(=O)N[C@H](C(=O)N[C@@H](CCCCN)C(=O)N[C@@H](CC(C)C)C(=O)N[C@@H](CCCCNC(=O)COCCOCCNC(=O)COCCOCCNC(=O)CC[C@H](NC(=O)CCCCCCCCCCCCCCCCC(=O)O)C(=O)O)C(=O)N[C@@H](CCC(N)=O)C(=O)N[C@H](C(=O)N[C@@H](CC(C)C)C(=O)N[C@@H](CC(C)C)C(=O)N[C@@H](CCC(=O)O)C(=O)N[C@@H](CCC(N)=O)C(=O)N[C@@H](C)C(=O)N[C@@H](CCCCN)C(=O)N[C@@H](CCC(N)=O)C(=O)N[C@@H](CCCCN)C(=O)NC(C)(C)C(=O)N[C@@H](CC(C)C)C(=O)N[C@@H](CCCNC(=N)N)C(=O)N[C@@H](C)C(=O)N[C@@H](CCC(N)=O)C(=O)N[C@@H](C)C(=O)N[C@@H](CCC(=O)O)C(=O)N[C@H](C(=O)N[C@@H](CC(N)=O)C(=O)N[C@H](C(=O)N[C@@H](CCCNC(=N)N)C(=O)N[C@H](C(=O)N[C@@H](CC(C)C)C(=O)N[C@@H](CCC(=O)O)C(=O)N[C@@H](CCCNC(=N)N)C(=O)N[C@H](C(N)=O)C(C)C)[C@@H](C)CC)C(C)C)[C@@H](C)O)[C@@H](C)CC)[C@@H](C)CC)C(C)C)C(C)C
EC50 [nM], 0% HSA (cAMP, A7R5 cells) (rat CRF2R α receptor): 8.97 nM | EC50[nM] 0% HSA (cAMP, CRF1R-overexpression CHO cells) [1]: > 1000 nM | Emax (%) (cAMP, CRF1R-overexpression CHO cells) [1]: 5.88%
